Measured values as given in patent publication US20230374132A1 (Innovent, published 2023).
Numbering of substitutions follows the chain as printed. Names and notes keep the numbering of the source.

B1: hzsp34.102 (antibody, human IgG1, lambda, L234A L235A, V domains shown)
VH: EVQLVESGGGLVQPGGSLKLSCAASGFTFNTYAMNWVRQASGKGLEWVGRIRSKYNNYATYYADSVKDRFTISRDDSKSTLYLQMNSLKTEDTAVYYCARHGNFGQSYVSWFAYWGQGTTVTVSS
VL: QAVVTQEPSLTVSPGGTVTLTCGSSTGAVTTSNYANWVQQKPGQAPRGLIGGTNKRAPGVPARFSGSLLGDKAALTLLGAQPEDEAEYYCALWYSNLWVFGQGTKLTVLG
notes: CDR mutant of hzsp34.24; IgG1 L234A L235A, lambda
B2: hzsp34.103 (antibody, human IgG1, lambda, L234A L235A, V domains shown)
VH: B1 VH
VL: B1 VL with G23R, T30G
notes: as for B1
B3: hzsp34.104 (antibody, human IgG1, lambda, L234A L235A, V domains shown)
VH: B1 VH
VL: B1 VL with G23R, T31G
notes: as for B1
B4: hzsp34.105 (antibody, human IgG1, lambda, L234A L235A, V domains shown)
VH: B1 VH
VL: B1 VL with G23R, S32R
notes: as for B1
B5: hzsp34.106 (antibody, human IgG1, lambda, L234A L235A, V domains shown)
VH: B1 VH
VL: B1 VL with G23R, N33G
notes: as for B1
B6: hzsp34.107 (antibody, human IgG1, lambda, L234A L235A, V domains shown)
VH: B1 VH
VL: B1 VL with G23R, W93A
notes: as for B1
B7: hzsp34.108 (antibody, human IgG1, lambda, L234A L235A, V domains shown)
VH: B1 VH
VL: B1 VL with G23R, Y94A
notes: as for B1
B8: hzsp34.109 (antibody, human IgG1, lambda, L234A L235A, V domains shown)
VH: B1 VH
VL: B1 VL with G23R, S95R
notes: as for B1
B9: hzsp34.110 (antibody, human IgG1, lambda, L234A L235A, V domains shown)
VH: B1 VH
VL: B1 VL with G23R, N96G
notes: as for B1
B10: hzsp34.111 (antibody, human IgG1, lambda, L234A L235A, V domains shown)
VH: B1 VH
VL: B1 VL with G23R, T30G, T31G
notes: as for B1
B11: hzsp34.112 (antibody, human IgG1, lambda, L234A L235A, V domains shown)
VH: B1 VH
VL: B1 VL with G23R, S32R, N33G
notes: as for B1
B12: hzsp34.113 (antibody, human IgG1, lambda, L234A L235A, V domains shown)
VH: B1 VH
VL: B1 VL with G23R, W93A, Y94A
notes: as for B1
B13: hzsp34.114 (antibody, human IgG1, lambda, L234A L235A, V domains shown)
VH: B1 VH
VL: B1 VL with G23R, S95R, N96G
notes: as for B1
B14: hzsp34.115 (antibody, human IgG1, lambda, L234A L235A, V domains shown)
VH: B1 VH
VL: B1 VL with G23R, K55S
notes: as for B1

Columns and labels:
[1] = target: T1, human CD3E&G complex (Sino Biological Inc., CT041-H0305H) (human, UniProt P07766 23-126; P09693 23-116); assay: BLI, antibody on sensor
T1 construct: bought heterodimer; also called human CD3E&G antigen
T1 sequence (P07766 23-126, chain 1 of 2): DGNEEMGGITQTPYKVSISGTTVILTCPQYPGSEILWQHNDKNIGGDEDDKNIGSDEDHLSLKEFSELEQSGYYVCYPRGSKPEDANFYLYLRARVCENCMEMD
T1 sequence (P09693 23-116, chain 2 of 2): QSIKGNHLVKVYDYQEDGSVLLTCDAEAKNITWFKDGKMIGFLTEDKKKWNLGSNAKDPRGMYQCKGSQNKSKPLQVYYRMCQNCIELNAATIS

[2] = target: T2, human CD3 E&D complex protein (Sino Biological Inc., CT026H0323H) (human, UniProt P07766 23-126; P04234 22-105); assay: BLI, antibody on sensor
T2 construct: bought heterodimer; also called human CD3 protein (CT026H0323H)
T2 sequence (P07766 23-126, chain 1 of 2): as the sequence (P07766 23-126, chain 1 of 2) above
T2 sequence (P04234 22-105, chain 2 of 2): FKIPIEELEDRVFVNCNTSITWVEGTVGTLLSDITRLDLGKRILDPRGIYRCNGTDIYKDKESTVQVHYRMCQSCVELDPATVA

Binder	Kd [1] [nM]	koff [1] [s⁻¹]	kon [1] [M⁻¹ s⁻¹]	Kd [2] [nM]	koff [2] [s⁻¹]	kon [2] [M⁻¹ s⁻¹]
B1	8.52	0.0019	222000	1.69	0.000423	250000
B2	7.57	0.00191	253000	1.34	0.000325	243000
B3	8.54	0.00198	231000	1.93	0.000542	281000
B4	10.6	0.0021	199000	1.3	0.000307	235000
B5	10.3	0.00237	230000	1.54	0.000365	236000
B6	59.8	0.00446	74600	8.44	0.00141	167000
B7	7.19	0.00146	203000	0.965	0.0002	207000
B8	9.02	0.0021	233000	1.15	0.000258	225000
B9	8.49	0.00188	222000	0.951	0.0002	210000
B10	9.5	0.00191	201000	1.94	0.000454	235000
B11	6.6	0.00155	235000	0.722	0.000204	282000
B12	3.71	0.000811	219000	1.02	0.0002	196000
B13	6.69	0.00134	200000	1.08	0.000282	262000
B14	7.7	0.00184	238000	1.26	0.000331	264000
